Experimental data published in publication PMC6141813, “NagRBt Is a Pleiotropic and Dual Transcriptional Regulator in Bacillus thuringiensis”.

B1: chiA dre probe (D) (dsDNA)
DNA 1: AACCAATCATCTAGACAACTATATAACACGAACGTTTTAC
DNA 2: GTAAAACGTTCGTGTTATATAGTTGTCTAGATGATTGGTT
B2: crr (ptsA) dre probe (H) (dsDNA)
DNA 1: TTTTTTTGCCCAACTTGTCTAGAGGTCTTTACTACATTTT
DNA 2: AAAATGTAGTAAAGACCTCTAGACAAGTTGGGCAAAAAAA

Molecular target: NagRBt (formerly YvoABt) (Bacillus thuringiensis strain Bti75, UniProt A0A1T3UL85 1-243)
Test: EMSA; EMSA: 10 mM Tris-HCl pH 8.0, 1 mM MgCl2, 50 mM NaCl, 0.5 mM DTT, 0.5 mM EDTA, 5% glycerol, 30 C, 30 min; 0.2 uM probe; competition with 3.0 uM NagRBt, 400-fold
Conditions: protein: recombinant; tags: C-terminal His (pET-28a(+)); chain copies: 2; unlabeled (EB stain); blunt

Binder	binding result
B1	binds
B2	binds
